Results as given in the Immune Epitope Database (IEDB).

Legend:
HLA-C*15:02 = assay: IEDB peptide-MHC binding, purified MHC/direct/fluorescence; filed as Kd, often an IC50 or EC50 that approximates it; ≥ and ≤ were set here for values at or beyond the usual limits of such assays; details: source organism: Bacillus anthracis str. A0488
HLA-B*27:20 = assay: IEDB peptide-MHC binding, purified MHC/competitive/fluorescence; filed as Kd, often an IC50 or EC50 that approximates it; ≥ and ≤ were set here for values at or beyond the usual limits of such assays; details: source organism: Bacillus anthracis str. A0488
HLA-B*40:13 = assay: as above; details: source organism: Bacillus anthracis str. A0488
HLA-A*03:19 = assay: as above; details: source organism: Bacillus anthracis str. A0488
HLA-A*32:07 = assay: as above; details: source organism: Bacillus anthracis str. A0488
HLA-B*15:42 = assay: as above; details: source organism: Bacillus anthracis str. A0488
HLA-C*06:02 = assay: as above; details: source organism: Bacillus anthracis str. A0488
HLA-B*45:06 = assay: as above; details: source organism: Bacillus anthracis str. A0488
HLA-A*24:03 = assay: as above; details: source organism: Bacillus anthracis str. A0488
HLA-B*83:01 = assay: as above; details: source organism: Bacillus anthracis str. A0488
HLA-A*30:02 = assay: IEDB peptide-MHC binding, purified MHC/competitive/radioactivity; filed as Kd, often an IC50 or EC50 that approximates it; ≥ and ≤ were set here for values at or beyond the usual limits of such assays; details: source organism: Dengue virus 1 Brazil/97-11/1997
HLA-B*46:01 = assay: IEDB peptide-MHC binding, purified MHC/direct/fluorescence; filed as Kd, often an IC50 or EC50 that approximates it; ≥ and ≤ were set here for values at or beyond the usual limits of such assays; details: source organism: Dengue virus
HLA-B*15:02 = assay: as above; details: source organism: dengue virus type 1

| Sequence | Kd (HLA-C*15:02) [nM] | Kd (HLA-B*27:20) [nM] | Kd (HLA-B*40:13) [nM] | Kd (HLA-A*03:19) [nM] | Kd (HLA-A*32:07) [nM] | Kd (HLA-B*15:42) [nM] | Kd (HLA-C*06:02) [nM] | Kd (HLA-B*45:06) [nM] | Kd (HLA-A*24:03) [nM] | Kd (HLA-B*83:01) [nM] | Kd (HLA-A*30:02) [nM] | Kd (HLA-B*46:01) [nM] | Kd (HLA-B*15:02) [nM] |
| --- | --- | --- | --- | --- | --- | --- | --- | --- | --- | --- | --- | --- | --- |
| RFFKHFMSL | 1570 | 16.1 | 5.2 | 46.1 | 0.4 | ≥ 5000 | 1190 | ≥ 5000 | ≤ 0.1 | ≥ 5000 |  |  |  |
| KLEGKIVQY |  |  |  |  |  |  |  |  |  |  | 833 | ≥ 20000 | ≥ 20000 |
